Read-outs that look alike come from different tables or passages of the source.
Tests used:
[1] = biological target: T1, CntA (carnitine monooxygenase oxygenase component) (Acinetobacter baumannii, UniProt D0C9N6); test: L-carnitine depletion assay with purified proteins; format: biochemical
T1 construct: with CntB (homologous system) or YeaX (chimeric system)

[2] = biological target: T2, YeaW (carnitine monooxygenase oxygenase component) (Escherichia coli, UniProt P0ABR7); test: L-carnitine depletion and O2 depletion assays with purified proteins; format: biochemical
T2 construct: N-terminal strep tag II fusion; with YeaX
T2 sequence (P76254 whole entry, one chain of several, the tested form may be a part): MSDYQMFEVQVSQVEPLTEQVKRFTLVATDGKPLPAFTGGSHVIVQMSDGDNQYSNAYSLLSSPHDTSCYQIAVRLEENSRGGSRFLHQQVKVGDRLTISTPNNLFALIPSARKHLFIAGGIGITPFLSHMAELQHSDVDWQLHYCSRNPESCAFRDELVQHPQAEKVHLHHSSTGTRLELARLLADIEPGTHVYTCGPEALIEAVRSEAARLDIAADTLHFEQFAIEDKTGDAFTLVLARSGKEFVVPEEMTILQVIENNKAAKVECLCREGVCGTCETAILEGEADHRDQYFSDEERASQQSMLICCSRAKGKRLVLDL

[3] = biological target: T2, YeaW (carnitine monooxygenase oxygenase component); test: L-carnitine depletion assay with purified YeaX/YeaW; slow conversion to TMA also shown by GC-MS; format: biochemical
[4] = biological target: T3, YeaW, Rieske-type oxygenase component of carnitine monooxygenase from E. coli (E. coli) (UniProt P0ABR7)
T3 sequence: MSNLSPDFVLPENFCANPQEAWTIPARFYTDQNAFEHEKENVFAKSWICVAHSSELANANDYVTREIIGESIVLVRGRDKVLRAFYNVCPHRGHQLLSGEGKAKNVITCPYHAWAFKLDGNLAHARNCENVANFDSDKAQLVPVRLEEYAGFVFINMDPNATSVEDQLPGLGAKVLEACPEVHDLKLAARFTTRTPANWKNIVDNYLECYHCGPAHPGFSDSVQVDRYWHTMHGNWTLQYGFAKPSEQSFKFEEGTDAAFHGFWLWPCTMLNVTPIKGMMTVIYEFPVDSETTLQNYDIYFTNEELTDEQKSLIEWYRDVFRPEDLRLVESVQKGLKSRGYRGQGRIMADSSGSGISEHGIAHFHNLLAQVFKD

[5] = biological target: T3, YeaW, Rieske-type oxygenase component of carnitine monooxygenase from E. coli (E. coli); remark: listed apart in the source
[6] = biological target: T3, YeaW, Rieske-type oxygenase component of carnitine monooxygenase from E. coli (E. coli); remark: listed apart in the source
[7] = biological target: the molecule itself; test: SEC; analytical gel filtration, Superdex 200 increase 5/150 GL, 10 mM Hepes-NaOH pH 7.5, 150 mM NaCl, 0.45 ml min^-1, 20 µl samples (~300 µM), calibrated with protein standards
[8] = biological target: T3, YeaW, Rieske-type oxygenase component of carnitine monooxygenase from E. coli (E. coli); remark: listed apart in the source

T1 sequence (D0C9N6 whole entry): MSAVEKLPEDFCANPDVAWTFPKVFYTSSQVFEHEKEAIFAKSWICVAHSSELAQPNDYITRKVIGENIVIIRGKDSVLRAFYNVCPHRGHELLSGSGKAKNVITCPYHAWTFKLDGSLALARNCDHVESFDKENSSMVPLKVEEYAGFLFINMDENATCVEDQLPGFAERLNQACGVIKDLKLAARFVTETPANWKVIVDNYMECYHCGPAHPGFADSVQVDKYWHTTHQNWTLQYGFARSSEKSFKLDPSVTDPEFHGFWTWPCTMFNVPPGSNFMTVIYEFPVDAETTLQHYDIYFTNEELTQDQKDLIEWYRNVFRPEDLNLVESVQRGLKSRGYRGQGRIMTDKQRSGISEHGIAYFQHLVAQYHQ

## C[N+](C)(C)C[C@H](O)CC(=O)[O-] [L-carnitine]
[1]
  L-carnitine depletion assay with purified proteins: 353 ± 68 nmol/min/mg
[2]
  L-carnitine depletion and O2 depletion assays with purified proteins: 1288 ± 48 nmol/min/mg

## C[N+](C)(C)NCCC(=O)[O-] [meldonium]
[3]
  IC50: 612 ± 68 µM

B1: YeaX variant K313Q (enzyme)
chain: MSDYQMFEVQVSQVEPLTEQVKRFTLVATDGKPLPAFTGGSHVIVQMSDGDNQYSNAYSLLSSPHDTSCYQIAVRLEENSRGGSRFLHQQVKVGDRLTISTPNNLFALIPSARKHLFIAGGIGITPFLSHMAELQHSDVDWQLHYCSRNPESCAFRDELVQHPQAEKVHLHHSSTGTRLELARLLADIEPGTHVYTCGPEALIEAVRSEAARLDIAADTLHFEQFAIEDKTGDAFTLVLARSGKEFVVPEEMTILQVIENNKAAKVECLCREGVCGTCETAILEGEADHRDQYFSDEERASQQSMLICCSRAQGKRLVLDL
[4]
  residual L-carnitine depletion activity (wild type = 100%): 30%
  residual O2 depletion activity (wild type = 100%): 30%

B2: YeaX variant R271Q (enzyme)
chain: MSDYQMFEVQVSQVEPLTEQVKRFTLVATDGKPLPAFTGGSHVIVQMSDGDNQYSNAYSLLSSPHDTSCYQIAVRLEENSRGGSRFLHQQVKVGDRLTISTPNNLFALIPSARKHLFIAGGIGITPFLSHMAELQHSDVDWQLHYCSRNPESCAFRDELVQHPQAEKVHLHHSSTGTRLELARLLADIEPGTHVYTCGPEALIEAVRSEAARLDIAADTLHFEQFAIEDKTGDAFTLVLARSGKEFVVPEEMTILQVIENNKAAKVECLCQEGVCGTCETAILEGEADHRDQYFSDEERASQQSMLICCSRAKGKRLVLDL
[5]
  residual L-carnitine depletion activity (wild type = 100%): 4%
  residual O2 depletion activity (wild type = 100%): 11%

B3: YeaX variant D320N (enzyme)
chain: MSDYQMFEVQVSQVEPLTEQVKRFTLVATDGKPLPAFTGGSHVIVQMSDGDNQYSNAYSLLSSPHDTSCYQIAVRLEENSRGGSRFLHQQVKVGDRLTISTPNNLFALIPSARKHLFIAGGIGITPFLSHMAELQHSDVDWQLHYCSRNPESCAFRDELVQHPQAEKVHLHHSSTGTRLELARLLADIEPGTHVYTCGPEALIEAVRSEAARLDIAADTLHFEQFAIEDKTGDAFTLVLARSGKEFVVPEEMTILQVIENNKAAKVECLCREGVCGTCETAILEGEADHRDQYFSDEERASQQSMLICCSRAKGKRLVLNL
[6]
  L-carnitine depletion activity (wild type = 100%): 9%
  O2 depletion activity (wild type = 100%): 11%

B4: YeaX variant K313E (enzyme)
chain: MSDYQMFEVQVSQVEPLTEQVKRFTLVATDGKPLPAFTGGSHVIVQMSDGDNQYSNAYSLLSSPHDTSCYQIAVRLEENSRGGSRFLHQQVKVGDRLTISTPNNLFALIPSARKHLFIAGGIGITPFLSHMAELQHSDVDWQLHYCSRNPESCAFRDELVQHPQAEKVHLHHSSTGTRLELARLLADIEPGTHVYTCGPEALIEAVRSEAARLDIAADTLHFEQFAIEDKTGDAFTLVLARSGKEFVVPEEMTILQVIENNKAAKVECLCREGVCGTCETAILEGEADHRDQYFSDEERASQQSMLICCSRAEGKRLVLDL
[4]
  residual L-carnitine depletion activity (wild type = 100%): 7%
  residual O2 depletion activity (wild type = 100%): 11%

B5: YeaX variant D320K (enzyme)
chain: MSDYQMFEVQVSQVEPLTEQVKRFTLVATDGKPLPAFTGGSHVIVQMSDGDNQYSNAYSLLSSPHDTSCYQIAVRLEENSRGGSRFLHQQVKVGDRLTISTPNNLFALIPSARKHLFIAGGIGITPFLSHMAELQHSDVDWQLHYCSRNPESCAFRDELVQHPQAEKVHLHHSSTGTRLELARLLADIEPGTHVYTCGPEALIEAVRSEAARLDIAADTLHFEQFAIEDKTGDAFTLVLARSGKEFVVPEEMTILQVIENNKAAKVECLCREGVCGTCETAILEGEADHRDQYFSDEERASQQSMLICCSRAKGKRLVLKL
[6]
  residual L-carnitine depletion activity (wild type = 100%): 3%
  residual O2 depletion activity (wild type = 100%): 7%

B6: YeaX variant R271K (enzyme)
chain: MSDYQMFEVQVSQVEPLTEQVKRFTLVATDGKPLPAFTGGSHVIVQMSDGDNQYSNAYSLLSSPHDTSCYQIAVRLEENSRGGSRFLHQQVKVGDRLTISTPNNLFALIPSARKHLFIAGGIGITPFLSHMAELQHSDVDWQLHYCSRNPESCAFRDELVQHPQAEKVHLHHSSTGTRLELARLLADIEPGTHVYTCGPEALIEAVRSEAARLDIAADTLHFEQFAIEDKTGDAFTLVLARSGKEFVVPEEMTILQVIENNKAAKVECLCKEGVCGTCETAILEGEADHRDQYFSDEERASQQSMLICCSRAKGKRLVLDL
[5]
  residual L-carnitine depletion activity (wild type = 100%): 80%
  residual O2 depletion activity (wild type = 100%): 70%

B7: YeaW, Rieske-type oxygenase component of carnitine monooxygenase from E. coli (enzyme, UniProt P0ABR7 1-374, looked up)
chain: MSNLSPDFVLPENFCANPQEAWTIPARFYTDQNAFEHEKENVFAKSWICVAHSSELANANDYVTREIIGESIVLVRGRDKVLRAFYNVCPHRGHQLLSGEGKAKNVITCPYHAWAFKLDGNLAHARNCENVANFDSDKAQLVPVRLEEYAGFVFINMDPNATSVEDQLPGLGAKVLEACPEVHDLKLAARFTTRTPANWKNIVDNYLECYHCGPAHPGFSDSVQVDRYWHTMHGNWTLQYGFAKPSEQSFKFEEGTDAAFHGFWLWPCTMLNVTPIKGMMTVIYEFPVDSETTLQNYDIYFTNEELTDEQKSLIEWYRDVFRPEDLRLVESVQKGLKSRGYRGQGRIMADSSGSGISEHGIAHFHNLLAQVFKD
notes: primers run from the start to the stop codon; No cleavage of the tag is described; calculated molecular mass 45,463 Da; Carries a Rieske-type [2Fe-2S] cluster and a mononuclear [Fe] center; also called oxygenase YeaW; catalytic unit YeaW
[7]
  stoichiometry N: 3

B8: CntB, reductase component of carnitine monooxygenase from Acinetobacter baumannii (enzyme)
chain: MASHYEMFPAVVTRVEQLTPLIKRFTFKRQDGQNFPRFSGGSHIIVKMNEQLSNAYSLMSCTQDLSTYQVCVRKDVEGKGGSVFMHDQCNEGCEIQISEPKNLFPLAETGNKHILIAGGIGITPFLPQMDELAARGAEYELHYAYRSPEHAALLDELTQKHAGHVFSYVDSEGSMLNLDELISSQPKGTHVYVCGPKPMIDAVIDCCNKHRYRDEYIHWEQFASTVPEDGEAFTVVLAKSNQEIEVQSNQTILQAIETLNIDVECLCREGVCGTCETAILEGEAEHFDQYLSDAEKASQKSMMICVSRAKGKKLVLDL
[8]
  Relative L-carnitine depletion activity of the chimeric enzyme (YeaX/YeaW = 100%): 20%
  Relative O2 depletion activity of the chimeric enzyme (YeaX/YeaW = 100%): 4%
